The values below are quoted from earlier work in article PMC6473736.

For this data set, the target named is Nterm (UniProt position 2, ----MVHLTPE). Particulars: not stated (haem ligation state not given).

For the substance “Human haemoglobin (adult Hb, alpha2beta2) (Homo sapiens)”, the pKa entry is “approximately 7.8 (α-chain) and 6.8 (β-chain)”.
